Test results as given in publication PMC9674223, “Voltage-sensor movements in the Eag Kv channel under an applied electric field” (Proceedings of the National Academy of Sciences of the …, 2022).

What was measured:
[1] = target: T1, vertebrate calmodulin (CaM) (vertebrate, UniProt P0DP23 1-149); assay: cryo-EM structure; Eag1-CaM complex purified with Ca2+, reconstituted into 90:5:5 POPC:POPG:cholesterol liposomes with 300 mM KCl; polarized with valinomycin and exchange of the external solution to 300 mM NaCl (a smaller dataset on unpolarized vesicles too); 10 mM Tris pH 8.0; conditions: both partners purified
T1 construct: vertebrate calmodulin, expressed from a separate vector without a tag; source: HEK293S GnTI- cells infected with rEag1 and CaM baculoviruses, co-purified with rEag1 in the presence of Ca2+

[2] = target: the molecule itself; assay: as above

B1: rat Eag1 with residues 773 to 886 truncated (rEag1) (natural protein, UniProt Q63472 1-962, looked up)
chain: MTMAGGRRGLVAPQNTFLENIVRRSNDTNFVLGNAQIVDWPIVYSNDGFCKLSGYHRAEVMQKSSACSFMYGELTDKDTVEKVRQTFENYEMNSFEILMYKKNRTPVWFFVKIAPIRNEQDKVVLFLCTFSDITAFKQPIEDDSCKGWGKFARLTRALTSSRGVLQQLAPSVQKGENVHKHSRLAEVLQLGSDILPQYKQEAPKTPPHIILHYCVFKTTWDWIILILTFYTAILVPYNVSFKTRQNNVAWLVVDSIVDVIFLVDIVLNFHTTFVGPAGEVISDPKLIRMNYLKTWFVIDLLSCLPYDVINAFENVDEGISSLFSSLKVVRLLRLGRVARKLDHYIEYGAAVLVLLVCVFGLAAHWMACIWYSIGDYEIFDEDTKTIRNNSWLYQLALDIGTPYQFNGSGSGKWEGGPSKNSVYISSLYFTMTSLTSVGFGNIAPSTDIEKIFAVAIMMIGSLLYATIFGNVTTIFQQMYANTNRYHEMLNSVRDFLKLYQVPKGLSERVMDYIVSTWSMSRGIDTEKVLQICPKDMRADICVHLNRKVFKEHPAFRLASDGCLRALAMEFQTVHCAPGDLIYHAGESVDSLCFVVSGSLEVIQDDEVVAILGKGDVFGDVFWKEATLAQSCANVRALTYCDLHVIKRDALQKVLEFYTAFSHSFSRNLILTYNLRKRIVFRKISDVKREEEERMKRKNEAPLILPPDHPVRRLFQRFRQQKEARLAAERGGRDLDDLDVEKGNALTDHTSANHSLVKASVVTVRESPATPVSFYPIPEQTLQATVLEVKHELKEDIKALNAKMTSIEKQLSEILRILMSRGSSQSPQDTCEVSRPQSPESDRDIFGAS
notes: rat Eag1 voltage-dependent K+ channel; construct corresponding to rat Eag1 with residues 773 to 886 truncated; Tetrameric channel (C4 symmetric up map); The C-terminal GFP-His6 tag was linked by a preScission protease site and removed; also called Eag channel; Eag Kv channel; not shown: GFP, C-terminal, cleaved; His6, C-terminal, cleaved
B1: binds [1]; binds [2].
